Measured values published in paper PMC10006412.

Biological target: Newcastle disease virus phosphoprotein (P protein) (Newcastle disease virus)
Assay: cryo-EM structure

Q: “Newcastle disease virus phosphoprotein (P protein) (natural protein)” was tested. Which stoichiometry N did it give?
A: The stoichiometry N was 4.
